Laboratory results taken from paper PMC6795808, “N6-methyladenosine modification of circNSUN2 facilitates cytoplasmic export and stabilizes HMGA2 to promote colorectal liver metastasis”.

Key:
IGF2BP2 WT = IGF2BP2 WT (UniProt Q9Y6M1 1-599); experiment: EMSA; dose-dependent; confirmed by supershift; LightShift Chemiluminescent RNA EMSA kit binding buffer (composition not stated), 30 min, room temperature; 6% native PAGE, 0.5x TBE; supershift preincubation with antibody 20 min at 0 C; details: protein: recombinant; tags: FLAG; label: 3'-biotin
Chain of IGF2BP2 WT (Q9Y6M1 whole entry): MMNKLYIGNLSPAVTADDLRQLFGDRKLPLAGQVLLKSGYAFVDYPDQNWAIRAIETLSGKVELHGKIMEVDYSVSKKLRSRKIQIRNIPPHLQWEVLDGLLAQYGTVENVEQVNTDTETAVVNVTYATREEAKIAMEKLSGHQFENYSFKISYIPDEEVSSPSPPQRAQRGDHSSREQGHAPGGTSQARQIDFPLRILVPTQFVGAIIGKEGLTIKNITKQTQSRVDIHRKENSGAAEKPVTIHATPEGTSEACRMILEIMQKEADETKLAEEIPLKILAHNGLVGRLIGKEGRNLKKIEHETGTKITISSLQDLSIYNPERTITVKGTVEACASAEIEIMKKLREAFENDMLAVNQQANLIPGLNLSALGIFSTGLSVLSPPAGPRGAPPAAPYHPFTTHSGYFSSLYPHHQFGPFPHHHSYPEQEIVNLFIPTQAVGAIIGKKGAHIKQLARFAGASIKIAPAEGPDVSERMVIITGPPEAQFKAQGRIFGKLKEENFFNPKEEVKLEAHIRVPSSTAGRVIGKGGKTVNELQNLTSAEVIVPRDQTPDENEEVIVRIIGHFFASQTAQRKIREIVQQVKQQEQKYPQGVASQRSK

YTHDC1 WT = YTHDC1 WT (UniProt Q96MU7 1-727); experiment: EMSA; LightShift Chemiluminescent RNA EMSA kit binding buffer (composition not stated), 30 min, room temperature; 6% native PAGE, 0.5x TBE; supershift preincubation with antibody 20 min at 0 C; details: protein: recombinant; tags: FLAG; label: 3'-biotin

CCUCAUCAUAAGGUAUCCUG (ssRNA) [circNSUN2 wild type (IGF2BP2 probe)]
binding result (IGF2BP2 WT): binds

B1: circNSUN2-m6A wild type (ssRNA)
RNA: AUAAGGUAUCCUGAAGAACU
modifications: m6A not marked in the printed sequence; whether A18 is methylated in the probe is unclear
binding result (YTHDC1 WT): binds
